Changes are numbered by the printed parent chain.
Assays:
Assay in all cases: SPR, mAb captured, C2 mutant analyte;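 note: Anti-C2 mAbs captured on goat anti-human IgG Biacore CM5 chips, alanine or serine C2 surface mutants flowed over at 37 °C, double-referenced sensorgrams fitted to a 1:1 binding model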
human C2 L439A = biological target: T1, human C2 L439A (human, UniProt P06681 21-752)
T1 sequence: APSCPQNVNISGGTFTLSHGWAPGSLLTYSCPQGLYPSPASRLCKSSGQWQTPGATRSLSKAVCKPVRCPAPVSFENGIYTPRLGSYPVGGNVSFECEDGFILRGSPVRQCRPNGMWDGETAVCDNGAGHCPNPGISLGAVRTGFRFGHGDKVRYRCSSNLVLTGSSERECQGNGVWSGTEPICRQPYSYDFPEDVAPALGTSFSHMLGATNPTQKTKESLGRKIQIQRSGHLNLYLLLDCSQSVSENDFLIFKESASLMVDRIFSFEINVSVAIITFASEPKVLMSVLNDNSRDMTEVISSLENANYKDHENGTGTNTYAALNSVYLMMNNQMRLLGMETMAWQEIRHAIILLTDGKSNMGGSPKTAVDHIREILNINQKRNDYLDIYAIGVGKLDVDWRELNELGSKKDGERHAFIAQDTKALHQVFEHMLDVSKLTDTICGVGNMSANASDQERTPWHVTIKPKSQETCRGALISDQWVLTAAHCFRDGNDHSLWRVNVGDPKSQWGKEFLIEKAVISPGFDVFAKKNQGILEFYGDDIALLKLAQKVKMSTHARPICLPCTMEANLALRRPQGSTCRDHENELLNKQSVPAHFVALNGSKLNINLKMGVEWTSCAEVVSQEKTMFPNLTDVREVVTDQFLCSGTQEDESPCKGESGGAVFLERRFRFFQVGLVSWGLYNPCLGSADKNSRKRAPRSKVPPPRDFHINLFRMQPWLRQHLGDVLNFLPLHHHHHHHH

human C2 V465A = biological target: T2, human C2 V465A (human, UniProt P06681 21-752)
T2 sequence: T1 sequence with A419L, V445A

human C2 M452A = biological target: T3, human C2 M452A (human, UniProt P06681 21-752)
T3 sequence: T1 sequence with A419L, M432A

human C2 D404A = biological target: T4, human C2 D404A (human, UniProt P06681 21-752)
T4 sequence: T1 sequence with D384A, A419L

Kd (human C2 L439A): 1320 nM
Kd (human C2 V465A): 72.7 nM
Kd (human C2 M452A): 21.3 nM
Kd (human C2 D404A): 77.6 nM
B1: RF16-214 (antibody, V domains shown)
VH: EVQLLESGGGLVQPGGSLRLSCAASGFTFSWYQMMWVRQAPGKGLEWVSRIYPSGGGTAYADSVKGRFTISRDNSKNTLYLQMNSLRAEDTAVYYCARDAGYGDNWGQGTLVTVSS
VL: QSALTQPPSVSVSPGQTASITCSGDKLGEKYASWYQQKAGQSPVMVIYQDRKRPSGIPERFSGSNSGNTATLTISGTQAMDEADYYCQAWDTRAVVFGGGTKLTVLG
